Experimental data published in patent US4740588A, “Novel substrate peptides” (Washington University, priority 1986, dated 1988).
One block for each molecule: values may come before it. Residues, ends and D or L forms follow the SMILES beside them.

Tests used:
[1] = biological target: T1, N-myristoylglycylpeptide synthetase (N-myristoyl transferase) (Saccharomyces cerevisiae, UniProt P14743); experiment: Assay for N-myristoylglycylpeptide synthetase activity, crude membrane fractions from yeast; format: biochemical; conditions: for activity as substrate for myristoylglycylpeptide synthetase: result in words
T1 construct: using crude membrane fractions from yeast with changes as indicated; endogenous in cells; host or cells: S. cerevisiae strain JR153 (protease-deficient), crude membrane pellet of the cell lysate
T1 sequence (P14743 1-455): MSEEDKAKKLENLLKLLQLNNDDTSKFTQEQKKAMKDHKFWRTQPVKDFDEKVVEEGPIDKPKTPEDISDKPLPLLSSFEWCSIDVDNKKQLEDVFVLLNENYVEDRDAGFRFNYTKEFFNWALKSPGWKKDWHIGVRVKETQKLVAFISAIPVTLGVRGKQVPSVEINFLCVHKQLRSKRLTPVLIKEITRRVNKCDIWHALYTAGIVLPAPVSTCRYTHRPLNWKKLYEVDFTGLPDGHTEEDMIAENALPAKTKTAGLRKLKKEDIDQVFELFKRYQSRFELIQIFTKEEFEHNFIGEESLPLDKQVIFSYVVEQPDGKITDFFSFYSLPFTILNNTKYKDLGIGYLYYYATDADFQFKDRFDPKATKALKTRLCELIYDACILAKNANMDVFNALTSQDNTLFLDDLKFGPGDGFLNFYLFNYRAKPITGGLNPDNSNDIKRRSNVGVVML
Protocol: The synthetic octapeptide […]was used to identify a unique enzymatic activity which transfers myristic acid to the amino terminal glycine of this and other peptides. […] The enzyme activity was determined in an in vitro assay which measures the transfer of [^3 H]-myristic acid to the acceptor peptide. The transfer reaction is dependent on adenosine triphosphate (ATP) and coenzyme A (CoA). The enzymatic product was then identified by high performance liquid chromatography (HPLC) by co-elution with a chemically synthesized myristoyl peptide standard. […] Both contained M-myristoyl glycine.
Preparation of yeast extract for the assay of N-myristoylglycylpeptide synthetase activity. Yeast cultures were grown as described above to O.D. 660 nm of 1 to 3. Cells from 40 ml of culture were collected by centrifugation at 4° C. at 7600×g for 10 minutes. The supernatant was decanted, the cell pellet was resuspended by pipetting into 1 ml of cold 10 mM Tris, pH 7.4, transferred to a 1.5 ml conical polypropylene centrifuge tube, and the cells were then repelleted at 4° C. at 7600×g for 10 minutes. Cells were resuspended in 400 μl of cold assay lysis buffer (10 mM Tris, pH 7.4, 1 mM dithiothreitol,0.1 mM ethylene glycol-bis(β-aminoethyl ether) N,N,N',N'-tetraacetic acid (EGTA), 10 μg/ml Aprotinin) by pipetting. Approximately 400 μl of 0.5 mm glass beads were added to the resuspended cells, and the cells were lysed by vortexing as described above for lysis of radioactively labeled cells. After allowing the beads to settle, the lysate was collected and cellular debris was removed by centrifugation at 4° C. at 1000×g for 10 minutes. The supernatant was then centrifuged at 4° C. at 45,000 rpm for 30 minutes in a Beckman 75 Ti rotor. The supernatant was removed, and the crude membrane pellet was resuspended by pipetting into 400 μl of cold assay lysis buffer. Aliquots of the three cellular fractions were either assayed immediately or stored at -60° C. The activity associated with crude membranes was stable at -60° C. for at least 3 months. Protein was determined by the method of Peterson, Anal. Biochem. 83, 346-356 (1977).
Assay for N-myristoylglycylpeptide synthetase activity. [^3 H]Fatty acyl CoA was synthesized enzymatically and added to the incubation as follows. […] Typically, 40% to 50% of the [^3 H]fatty acid was converted to its CoA ester by this procedure as measured by determining the radioactivity remaining in the reaction after acidification with 6 N HCl to pH 2.0 and extraction 6 times with 5 volumes of heptane, a modification of the method of Hosaka et al., Meth. […]

[2] = substrate: C[C@H](NC(=O)[C@H](C)NC(=O)[C@H](Cc1ccccc1)NC(=O)[C@H](CC(N)=O)NC(=O)CN)C(=O)N[C@@H](C)C(=O)N[C@@H](CCCNC(=N)N)C(=O)N[C@@H](CCCNC(=N)N)C(N)=O; experiment: Peptide substrate specificity (Km, Vmax) of partially purified yeast myristoylating enzyme; format: biochemical, S. cerevisiae strain JR153; conditions: other: peptide as acyl acceptor, 1 μCi [3H]-myristic acid per tube, 30.0 °C
Protocol: (§1) Assay for N-myristoylglycylpeptide synthetase activity. [^3 H]Fatty acyl CoA was synthesized enzymatically and added to the incubation as follows. The acyl CoA synthetase reaction consisted of (per one assay tube): 0.5 μCi of [^3 H]myristic acid; 25 μl of 2× assay buffer (20 mM Tris, pH 7.4, 2 mM dithiothreitol, 10 mM MgCl2, 0.2 mM EGTA); 5 μl of 50 mM ATP in distilled water, adjusted to pH 7.0 with NaOH; 2.5 μl of 20 mM lithium CoA in distilled water; 15 μl of 1mU/μl of Pseudomonas acyl CoA synthetase (Sigma) in 50 mM N-2-hydroxyethylpiperazine-N'-2-ethane sulfonic acid, pH 7.3; 2.5 μl of distilled water. The reaction was allowed to proceed for 20 minutes at 30° C. Typically, 40% to 50% of the [^3 H]fatty acid was converted to its CoA ester by this procedure as measured by determining the radioactivity remaining in the reaction after acidification with 6 N HCl to pH 2.0 and extraction 6 times with 5 volumes of heptane, a modification of the method of Hosaka et al., Meth. […] The assay was initiated by the addition of 10 μl of yeast cell extract (typically 50 μg of protein) per tube, followed by incubation at 30° C. for 10 min. The assay was terminated by the addition of 110 μl of methanol and 10 μl of 100% trichloracetic acid (w/v) per tube, followed by cooling ten minutes on ice. Precipitated protein was removed by centrifugation at 8000×g for 3 minutes in a tabletop Eppendorf centrifuge. […] One minute fractions were collected and the radioactivity in each fraction determined by liquid scintillation counting. [^3 H]-Myristoyl-[sequence]eluted at 24 minutes, while [^3 H]palmitoyl-[sequence]eluted at 30 minutes.
(§2) The peptide substrate specificity of the enzyme was tested under the assay conditions described in Example 2 but using 1 μCi of [^3 H]-myristic acid per assay tube. The yeast enzyme used in this example was partially purified from a crude homogenate of the cultured yeast cells by fractionation with 51-70% (NH4)2 SO4 followed by ion exchange column chromatography with DEAE-Sepharose® CL-6B (Pharmacia) and affinity chromatography with CoA-agarose affinity matrix (Pharmacia).

[3] = substrate: C[C@H](NC(=O)[C@H](C)NC(=O)[C@H](CCC(=O)O)NC(=O)[C@H](CC(N)=O)NC(=O)CN)C(=O)N[C@@H](C)C(=O)N[C@@H](CCCNC(=N)N)C(=O)N[C@@H](CCCNC(=N)N)C(N)=O; experiment: as above; format: biochemical, S. cerevisiae strain JR153; conditions: other: peptide as acyl acceptor, 1 μCi [3H]-myristic acid per tube, 30.0 °C
Protocol: as §1, §2

[4] = substrate: C[C@H](NC(=O)[C@H](C)NC(=O)[C@H](C)NC(=O)[C@H](CCC(N)=O)NC(=O)CN)C(=O)N[C@@H](C)C(=O)N[C@@H](CCCNC(=N)N)C(=O)N[C@@H](CCCNC(=N)N)C(N)=O; experiment: as above; format: biochemical, S. cerevisiae strain JR153; conditions: other: peptide as acyl acceptor, 1 μCi [3H]-myristic acid per tube, 30.0 °C
Protocol: as §1, §2

[5] = substrate: C[C@H](NC(=O)[C@H](C)NC(=O)[C@H](CC(N)=O)NC(=O)CN)C(=O)N[C@@H](CO)C(N)=O; experiment: as above; format: biochemical, S. cerevisiae strain JR153; conditions: other: peptide as acyl acceptor, 1 μCi [3H]-myristic acid per tube, 30.0 °C
Protocol: as §1, §2

[6] = substrate: C[C@H](NC(=O)[C@H](C)NC(=O)[C@H](C)NC(=O)[C@H](CO)NC(=O)CN)C(=O)N[C@@H](C)C(=O)N[C@@H](CCCNC(=N)N)C(=O)N[C@@H](CCCNC(=N)N)C(N)=O; experiment: as above; format: biochemical, S. cerevisiae strain JR153; conditions: other: peptide as acyl acceptor, 1 μCi [3H]-myristic acid per tube, 30.0 °C
Protocol: as §1, §2

[7] = substrate: C[C@H](NC(=O)[C@H](C)NC(=O)[C@H](CCCNC(=N)N)NC(=O)[C@H](CC(N)=O)NC(=O)CN)C(=O)N[C@@H](C)C(=O)N[C@@H](CCCNC(=N)N)C(=O)N[C@@H](CCCNC(=N)N)C(N)=O; experiment: as above; format: biochemical, S. cerevisiae strain JR153; conditions: other: peptide as acyl acceptor, 1 μCi [3H]-myristic acid per tube, 30.0 °C
Protocol: as §1, §2

[8] = substrate: CC(C)C[C@H](NC(=O)[C@@H]1CCCN1C(=O)[C@H](Cc1ccc(O)cc1)NC(=O)[C@H](CO)NC(=O)[C@H](C)NC(=O)[C@H](CCC(=O)O)NC(=O)[C@H](CC(N)=O)NC(=O)CN)C(N)=O; experiment: as above; format: biochemical, S. cerevisiae strain JR153; conditions: other: peptide as acyl acceptor, 1 μCi [3H]-myristic acid per tube, 30.0 °C
Protocol: as §1, §2

[9] = substrate: C[C@H](NC(=O)CN)C(=O)N[C@@H](CCC(N)=O)C(=O)N[C@@H](C)C(=O)N[C@@H](C)C(=O)N[C@@H](C)C(=O)N[C@@H](CCCNC(=N)N)C(=O)N[C@@H](CCCNC(=N)N)C(N)=O; experiment: as above; format: biochemical, S. cerevisiae strain JR153; conditions: other: peptide as acyl acceptor, 1 μCi [3H]-myristic acid per tube, 30.0 °C
Protocol: as §1, §2

[10] = substrate: C[C@H](NC(=O)[C@H](C)NC(=O)[C@H](C)NC(=O)[C@H](C)NC(=O)[C@H](CC(N)=O)NC(=O)CN)C(N)=O; experiment: as above; format: biochemical, S. cerevisiae strain JR153; conditions: other: peptide as acyl acceptor, 1 μCi [3H]-myristic acid per tube, 30.0 °C
Protocol: as §1, §2

activity as substrate for myristoylglycylpeptide synthetase [1]: inactive
Molecule: N=C(N)NCCC[C@H](NC(=O)[C@@H]1CCCN1C(=O)CN)C(=O)N1CCC[C@H]1C(N)=O [GPRP, Gly-Pro-Arg-Pro] (H-GPRP-NH2)

Molecule: GSSKSPKDPS
Rate of Myristoylpeptide Synthesis ([1]; Test 3: 1 mM test peptide added as competitor, 18 μM GlyAsnAlaAlaAlaAlaArgArg substrate, control 26.7): 27.4 DPM × 10^3 /10 min | activity as substrate for myristoylglycylpeptide synthetase [1]: inactive

activity as substrate for myristoylglycylpeptide synthetase [1]: inactive
Molecule: NCC(=O)N[C@@H](CC(N)=O)C(N)=O [GN, Gly-Asn] (H-Gly-Asn-NH2)

B1: Yeast Myristoylating Enzyme (Saccharomyces cerevisiae S288C) (protein)
chain: MSEEDKAKKLENLLKLLQLNNDDTSKFTQEQKKAMKDHKFWRTQPVKDFDEKVVEEGPIDKPKTPEDISDKPLPLLSSFEWCSIDVDNKKQLEDVFVLLNENYVEDRDAGFRFNYTKEFFNWALKSPGWKKDWHIGVRVKETQKLVAFISAIPVTLGVRGKQVPSVEINFLCVHKQLRSKRLTPVLIKEITRRVNKCDIWHALYTAGIVLPAPVSTCRYTHRPLNWKKLYEVDFTGLPDGHTEEDMIAENALPAKTKTAGLRKLKKEDIDQVFELFKRYQSRFELIQIFTKEEFEHNFIGEESLPLDKQVIFSYVVEQPDGKITDFFSFYSLPFTILNNTKYKDLGIGYLYYYATDADFQFKDRFDPKATKALKTRLCELIYDACILAKNANMDVFNALTSQDNTLFLDDLKFGPGDGFLNFYLFNYRAKPITGGLNPDNSNDIKRRSNVGVVML
notes: partially purified from a crude homogenate of the cultured yeast cells; endogenous in cells; host or cells: S. cerevisiae strain JR153
Km [2]: 60 µM | Km [3]: 1800 µM | Km [4]: 70 µM | Km [5]: 900 µM | Km [6]: 1700 µM | Km [7]: 400 µM | Km [8]: 2300 µM | Km [9]: 1400 µM | Km [10]: 1300 µM
